The record followed here is patent publication US20150011730A1.

The term IC50 denotes the concentration at which inhibition is half-maximal. A low value points to greater potency.

For test [1], the target named is CDK2/cyclin A (as used in the binding assay) (UniProt P24941).
The target of test [2] is CDK4/cyclin D1 (as used in the binding assay) (UniProt P11802).
Chain of CDK4/cyclin D1 (as used in the binding assay) (P11802 whole entry, chain 1 of 2): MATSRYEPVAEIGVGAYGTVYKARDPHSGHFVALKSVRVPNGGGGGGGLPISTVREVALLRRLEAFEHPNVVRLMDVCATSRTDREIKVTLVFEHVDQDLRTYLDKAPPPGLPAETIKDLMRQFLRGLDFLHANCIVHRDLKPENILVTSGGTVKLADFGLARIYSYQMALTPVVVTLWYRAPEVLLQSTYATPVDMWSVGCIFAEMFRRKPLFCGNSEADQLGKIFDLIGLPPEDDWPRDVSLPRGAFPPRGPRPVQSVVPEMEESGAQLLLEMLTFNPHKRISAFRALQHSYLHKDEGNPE
Chain of CDK4/cyclin D1 (as used in the binding assay) (P24385 whole entry, chain 2 of 2, further chain): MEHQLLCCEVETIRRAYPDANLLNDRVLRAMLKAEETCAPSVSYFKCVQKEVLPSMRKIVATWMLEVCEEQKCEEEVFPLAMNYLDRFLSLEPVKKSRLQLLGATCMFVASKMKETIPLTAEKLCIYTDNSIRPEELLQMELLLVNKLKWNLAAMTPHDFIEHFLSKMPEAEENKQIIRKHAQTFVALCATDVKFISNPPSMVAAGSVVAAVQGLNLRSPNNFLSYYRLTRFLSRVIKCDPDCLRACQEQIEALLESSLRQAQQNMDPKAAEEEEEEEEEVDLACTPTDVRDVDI

As for R{bLeu}NMeF (peptide), the concentration for half-maximal inhibition (IC50) in test [1] stood at 505 nM; in test [2], 61.2 µM.
With R{bLeu}NMeF-NH2 (peptide), the figures for the IC50 in test [1] and in test [2] were 405 nM and 89.7 µM, respectively.
